Assay results published in paper PMC12752125.

Target: porcine PD-1 (programmed death 1) expressed on HEK293T cells (porcine)
Experiment: flow cytometry on cells; HEK293T cells transfected with pcDNA3.1-PD-1 (or empty vector) for 24 h; purified PD-L1-Fc added and incubated for 1 h; percent of positive cells read

## porcine PD-L1-rabbit Fc fusion protein
  percent of cells positive: 38.3%
